Article PMC7010799

Assays:
[1] = molecular target: human NatA complex (hNAA15/hNAA10) (human) (UniProt Q9BXJ9)
[2] = molecular target: human NatA complex (hNAA15/hNAA10) (human) (UniProt Q9BXJ9); experiment: ITC; MicroCal iTC200, 20 °C; 25 mM HEPES pH 7.0, 200 mM NaCl, 1 mM DTT; 15 μM hNatA or hNatE in the cell, 150 μM MBP-HYPK in the syringe

Chain of human NatA complex (hNAA15/hNAA10) (human) (Q9BXJ9 whole entry, chain 1 of 2): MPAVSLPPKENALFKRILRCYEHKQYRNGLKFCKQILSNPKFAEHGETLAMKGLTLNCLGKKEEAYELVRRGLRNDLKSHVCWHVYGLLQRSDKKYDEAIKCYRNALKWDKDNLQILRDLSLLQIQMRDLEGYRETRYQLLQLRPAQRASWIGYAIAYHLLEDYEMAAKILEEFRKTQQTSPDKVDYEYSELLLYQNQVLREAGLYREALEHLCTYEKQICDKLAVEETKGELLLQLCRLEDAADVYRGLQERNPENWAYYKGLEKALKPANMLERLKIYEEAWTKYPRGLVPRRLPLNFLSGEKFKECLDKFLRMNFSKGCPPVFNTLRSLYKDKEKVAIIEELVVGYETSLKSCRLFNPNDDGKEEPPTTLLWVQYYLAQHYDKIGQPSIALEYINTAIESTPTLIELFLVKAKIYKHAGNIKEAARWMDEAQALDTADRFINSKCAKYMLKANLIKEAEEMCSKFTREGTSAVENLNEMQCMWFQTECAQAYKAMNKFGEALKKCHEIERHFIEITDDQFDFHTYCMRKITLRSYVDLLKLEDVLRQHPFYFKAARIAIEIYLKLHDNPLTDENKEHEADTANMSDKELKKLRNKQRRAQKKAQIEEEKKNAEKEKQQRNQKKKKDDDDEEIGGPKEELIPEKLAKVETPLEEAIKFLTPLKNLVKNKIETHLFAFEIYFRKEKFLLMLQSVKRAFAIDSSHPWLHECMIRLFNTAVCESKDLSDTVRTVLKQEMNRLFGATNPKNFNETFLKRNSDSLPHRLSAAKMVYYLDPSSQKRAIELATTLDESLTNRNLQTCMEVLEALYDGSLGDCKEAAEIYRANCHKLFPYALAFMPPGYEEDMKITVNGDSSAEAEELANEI
Chain of human NatA complex (hNAA15/hNAA10) (human) (P41227 whole entry, chain 2 of 2, further chain): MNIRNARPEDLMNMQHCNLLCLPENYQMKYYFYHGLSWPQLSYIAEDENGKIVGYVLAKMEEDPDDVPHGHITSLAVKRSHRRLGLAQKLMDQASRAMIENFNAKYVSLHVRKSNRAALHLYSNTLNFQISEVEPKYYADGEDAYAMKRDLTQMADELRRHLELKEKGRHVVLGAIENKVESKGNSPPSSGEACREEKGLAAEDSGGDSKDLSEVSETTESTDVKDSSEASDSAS
Chain of maltose-binding protein (MBP) tagged HYPK (from UniProt Q9NX55 1-121) (natural protein; other documents disagree on this pair) (Q9NX55 whole entry): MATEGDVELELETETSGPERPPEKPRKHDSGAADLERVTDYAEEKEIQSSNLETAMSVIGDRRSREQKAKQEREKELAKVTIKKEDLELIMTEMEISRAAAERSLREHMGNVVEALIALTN
Chain of maltose-binding protein (MBP) tagged HYPK (from UniProt Q9NX55 1-121) (natural protein) (Q9NX55 whole entry): as above

## maltose-binding protein (MBP) tagged HYPK (from UniProt Q9NX55 1-121) (natural protein)
[1]
  inhibition of hNatA (100 nM) acetylation activity against SASE peptide, MBP-HYPK titrated: 90%

## maltose-binding protein (MBP) tagged HYPK (from UniProt Q9NX55 1-121) (natural protein; other documents disagree on this pair)
[2]
  Kd: 29.9 nM
